Reference: PMC6457933 (Science Advances, 2019)
Values belong to the molecule of their own block, whether it stands above or below them.

Tests used:
Experiment in all cases: crystal structure
[1] = target: KR2 G263F mutant (Krokinobacter eikastus)
[2] = target: KR2 S254A mutant (Krokinobacter eikastus)
[3] = target: the molecule itself

- stoichiometry N [1]: 5
Molecule: KR2 G263F mutant (natural protein)

- stoichiometry N [2]: 5
Molecule: KR2 S254A mutant (natural protein)

B1: Krokinobacter eikastus rhodopsin 2 (KR2), wild type (natural protein)
chain: MTQELGNANFENFIGATEGFSEIAYQFTSHILTLGYAVMLAGLLYFILTIKNVDKKFQMSNILSAVVMVSAFLLLYAQAQNWTSSFTFNEEVGRYFLDPSGDLFNNGYRYLNWLIDVPMLLFQILFVVSLTTSKFSSVRNQFWFSGAMMIITGYIGQFYEVSNLTAFLVWGAISSAFFFHILWVMKKVINEGKEGISPAGQKILSNIWILFLISWTLYPGAYLMPYLTGVDGFLYSEDGVMARQLVYTIADVSSKVIYGVLLGNLAITLSKNKELVEANS
modifications: retinal covalently bound to Lys255 via the Schiff base
- stoichiometry N [3]: 5
